Test results from patent publication US11306156.

Tests used:
[1] = molecular target: D3H44 Fab heavy chain L143E_K145T_Q179E, ABD2-His6 tagged; assay: LCCA, SPR of light chain tags; L1:L2 DNA 1:3 normalized to 1:1; competing light chain m16
[2] = molecular target: D3H44 Fab heavy chain Q179K, ABD2-His6 tagged; assay: as above
[3] = molecular target: D3H44 Fab heavy chain Q179R, ABD2-His6 tagged; assay: as above
[4] = molecular target: D3H44 Fab heavy chain S186K, ABD2-His6 tagged; assay: as above
[5] = molecular target: D3H44 Fab heavy chain S186R, ABD2-His6 tagged; assay: as above
[6] = molecular target: D3H44 Fab heavy chain L143E_K145T_Q179E, ABD2-His6 tagged; assay: LCCA, SPR of light chain tags; L1:L2 DNA 1:9 normalized to 1:1; competing light chain m16
[7] = molecular target: D3H44 Fab heavy chain Q179K, ABD2-His6 tagged; assay: as above
[8] = molecular target: D3H44 Fab heavy chain Q179R, ABD2-His6 tagged; assay: as above
[9] = molecular target: D3H44 Fab heavy chain S186K, ABD2-His6 tagged; assay: as above
[10] = molecular target: D3H44 Fab heavy chain S186R, ABD2-His6 tagged; assay: as above
[11] = molecular target: D3H44 Fab heavy chain L143E_K145T_Q179D, ABD2-His6 tagged; assay: LCCA, SPR of light chain tags; L1:L2 DNA 1:3 normalized to 1:1; competing light chain m18
[12] = molecular target: D3H44 Fab heavy chain S186K, ABD2-His6 tagged; assay: as above
[13] = molecular target: D3H44 Fab heavy chain S186R, ABD2-His6 tagged; assay: as above
[14] = molecular target: D3H44 Fab heavy chain L143E_K145T_Q179D, ABD2-His6 tagged; assay: LCCA, SPR of light chain tags; L1:L2 DNA 1:3 normalized to 1:1; competing light chain m23
[15] = molecular target: D3H44 Fab heavy chain L143E_K145T_Q179E, ABD2-His6 tagged; assay: as above
[16] = molecular target: D3H44 Fab heavy chain S186K, ABD2-His6 tagged; assay: as above
[17] = molecular target: D3H44 Fab heavy chain S186R, ABD2-His6 tagged; assay: as above
[18] = molecular target: D3H44 Fab heavy chain L143E_K145T_Q179D, ABD2-His6 tagged; assay: LCCA, SPR of light chain tags; L1:L2 DNA 1:9 normalized to 1:1; competing light chain m18
[19] = molecular target: D3H44 Fab heavy chain S186K, ABD2-His6 tagged; assay: as above
[20] = molecular target: D3H44 Fab heavy chain L143R, ABD2-His6 tagged; assay: LCCA, SPR of light chain tags; L1:L2 DNA 1:3 normalized to 1:1; competing light chain m16
[21] = molecular target: D3H44 Fab heavy chain L143R, ABD2-His6 tagged; assay: LCCA, SPR of light chain tags; L1:L2 DNA 1:9 normalized to 1:1; competing light chain m16
[22] = molecular target: D3H44 Fab heavy chain L143E_K145T_Q179E, ABD2-His6 tagged; assay: LCCA, SPR of light chain tags; L1:L2 DNA 1:3 normalized to 1:1; competing light chain m17
[23] = molecular target: D3H44 Fab heavy chain Q179K, ABD2-His6 tagged; assay: as above
[24] = molecular target: D3H44 Fab heavy chain Q179R, ABD2-His6 tagged; assay: as above
[25] = molecular target: D3H44 Fab heavy chain S186K, ABD2-His6 tagged; assay: as above
[26] = molecular target: D3H44 Fab heavy chain S186R, ABD2-His6 tagged; assay: as above
[27] = molecular target: D3H44 Fab heavy chain L143E_K145T_Q179E, ABD2-His6 tagged; assay: LCCA, SPR of light chain tags; L1:L2 DNA 1:3 normalized to 1:1; competing light chain m19
[28] = molecular target: D3H44 Fab heavy chain S186R, ABD2-His6 tagged; assay: as above
[29] = molecular target: D3H44 Fab heavy chain L143E_K145T_Q179E, ABD2-His6 tagged; assay: LCCA, SPR of light chain tags; L1:L2 DNA 1:3 normalized to 1:1; competing light chain m20
[30] = molecular target: D3H44 Fab heavy chain L143R, ABD2-His6 tagged; assay: as above
[31] = molecular target: D3H44 Fab heavy chain L143E_K145T_Q179E, ABD2-His6 tagged; assay: LCCA, SPR of light chain tags; L1:L2 DNA 1:3 normalized to 1:1; competing light chain m21
[32] = molecular target: D3H44 Fab heavy chain Q179R, ABD2-His6 tagged; assay: as above
[33] = molecular target: D3H44 Fab heavy chain S186K, ABD2-His6 tagged; assay: as above
[34] = molecular target: D3H44 Fab heavy chain L143E_K145T_Q179E, ABD2-His6 tagged; assay: LCCA, SPR of light chain tags; L1:L2 DNA 1:3 normalized to 1:1; competing light chain m22
[35] = molecular target: D3H44 Fab heavy chain Q179K, ABD2-His6 tagged; assay: as above
[36] = molecular target: D3H44 Fab heavy chain Q179R, ABD2-His6 tagged; assay: as above
[37] = molecular target: D3H44 Fab heavy chain L143E_K145T_Q179E, ABD2-His6 tagged; assay: LCCA, SPR of light chain tags; L1:L2 DNA 1:3 normalized to 1:1; competing light chain m24
[38] = molecular target: D3H44 Fab heavy chain S186K, ABD2-His6 tagged; assay: as above
[39] = molecular target: D3H44 Fab heavy chain L143E_K145T_Q179E, ABD2-His6 tagged; assay: LCCA, SPR of light chain tags; L1:L2 DNA 1:9 normalized to 1:1; competing light chain m17
[40] = molecular target: D3H44 Fab heavy chain Q179K, ABD2-His6 tagged; assay: as above
[41] = molecular target: D3H44 Fab heavy chain Q179R, ABD2-His6 tagged; assay: as above
[42] = molecular target: D3H44 Fab heavy chain S186K, ABD2-His6 tagged; assay: as above
[43] = molecular target: D3H44 Fab heavy chain S186R, ABD2-His6 tagged; assay: as above
[44] = molecular target: D3H44 Fab heavy chain L143E_K145T_Q179E, ABD2-His6 tagged; assay: LCCA, SPR of light chain tags; L1:L2 DNA 1:9 normalized to 1:1; competing light chain m20
[45] = molecular target: D3H44 Fab heavy chain L143R, ABD2-His6 tagged; assay: as above
[46] = molecular target: D3H44 Fab heavy chain L143E_K145T_Q179E, ABD2-His6 tagged; assay: LCCA, SPR of light chain tags; L1:L2 DNA 1:9 normalized to 1:1; competing light chain m21
[47] = molecular target: D3H44 Fab heavy chain Q179R, ABD2-His6 tagged; assay: as above
[48] = molecular target: D3H44 Fab heavy chain S186K, ABD2-His6 tagged; assay: as above
[49] = molecular target: D3H44 Fab heavy chain L143E_K145T_Q179E, ABD2-His6 tagged; assay: LCCA, SPR of light chain tags; L1:L2 DNA 1:9 normalized to 1:1; competing light chain m22
[50] = molecular target: D3H44 Fab heavy chain Q179K, ABD2-His6 tagged; assay: as above
[51] = molecular target: D3H44 Fab heavy chain L143E_K145T_Q179E, ABD2-His6 tagged; assay: LCCA, SPR of light chain tags; L1:L2 DNA 1:9 normalized to 1:1; competing light chain m24
[52] = molecular target: D3H44 Fab heavy chain S186K, ABD2-His6 tagged; assay: as above

D3H44 light chain Q124E_Q160E_T178E, HA or FLAG tagged
H1L1:H1L2 normalized median ratio [1]: 9%
H2L2:H2L1 normalized median ratio [2]: 95%
H2L2:H2L1 normalized median ratio [3]: 95%
H2L2:H2L1 normalized median ratio [4]: 98%
H2L2:H2L1 normalized median ratio [5]: 94%
H1L1:H1L2 normalized median ratio [6]: 10%
H2L2:H2L1 normalized median ratio [7]: 84%
H2L2:H2L1 normalized median ratio [8]: 86%
H2L2:H2L1 normalized median ratio [9]: 90%
H2L2:H2L1 normalized median ratio [10]: 87%

D3H44 light chain Q124E_T180E, HA or FLAG tagged
H1L1:H1L2 normalized median ratio [1]: 15%
H2L2:H2L1 normalized median ratio [5]: 96%
H1L1:H1L2 normalized median ratio [11]: 15%
H2L2:H2L1 normalized median ratio [12]: 98%
H2L2:H2L1 normalized median ratio [13]: 97%
H1L1:H1L2 normalized median ratio [14]: 16%
H1L1:H1L2 normalized median ratio [15]: 16%
H2L2:H2L1 normalized median ratio [16]: 97%
H2L2:H2L1 normalized median ratio [17]: 97%
H1L1:H1L2 normalized median ratio [18]: 11%
H2L2:H2L1 normalized median ratio [19]: 95%

D3H44 light chain Q124E_V133E, HA or FLAG tagged
H1L1:H1L2 normalized median ratio [1]: 7%
H2L2:H2L1 normalized median ratio [20]: 95%
H1L1:H1L2 normalized median ratio [6]: 8%
H2L2:H2L1 normalized median ratio [21]: 89%

D3H44 light chain Q124R_T178R, HA or FLAG tagged
H1L1:H1L2 normalized median ratio [22]: 91%
H1L1:H1L2 normalized median scalar value ln(r1/f1) [22]: 2.29
H2L2:H2L1 normalized median ratio [23]: 5%
H2L2:H2L1 normalized median ratio [24]: 5%
H2L2:H2L1 normalized median ratio [25]: 2%
H2L2:H2L1 normalized median ratio [26]: 6%
H1L1:H1L2 normalized median ratio [27]: 85%
H1L1:H1L2 normalized median scalar value ln(r1/f1) [27]: 1.75
H2L2:H2L1 normalized median ratio [28]: 4%
H1L1:H1L2 normalized median ratio [29]: 93%
H1L1:H1L2 normalized median scalar value ln(r1/f1) [29]: 2.62
H2L2:H2L1 normalized median ratio [30]: 5%
H1L1:H1L2 normalized median ratio [31]: 92%
H1L1:H1L2 normalized median scalar value ln(r1/f1) [31]: 2.46
H2L2:H2L1 normalized median ratio [32]: 6%
H2L2:H2L1 normalized median ratio [33]: 5%
H1L1:H1L2 normalized median ratio [34]: 86%
H1L1:H1L2 normalized median scalar value ln(r1/f1) [34]: 1.83
H2L2:H2L1 normalized median ratio [35]: 4%
H2L2:H2L1 normalized median ratio [36]: 3%
H1L1:H1L2 normalized median ratio [37]: 91%
H1L1:H1L2 normalized median scalar value ln(r1/f1) [37]: 2.27
H2L2:H2L1 normalized median ratio [38]: 6%
H1L1:H1L2 normalized median ratio [39]: 90%
H1L1:H1L2 normalized median scalar value ln(r1/f1) [39]: 2.18
H2L2:H2L1 normalized median ratio [40]: 16%
H2L2:H2L1 normalized median ratio [41]: 14%
H2L2:H2L1 normalized median ratio [42]: 10%
H2L2:H2L1 normalized median ratio [43]: 13%
H1L1:H1L2 normalized median ratio [44]: 92%
H1L1:H1L2 normalized median scalar value ln(r1/f1) [44]: 2.45
H2L2:H2L1 normalized median ratio [45]: 11%
H1L1:H1L2 normalized median ratio [46]: 92%
H1L1:H1L2 normalized median scalar value ln(r1/f1) [46]: 2.45
H2L2:H2L1 normalized median ratio [47]: 10%
H2L2:H2L1 normalized median ratio [48]: 11%
H1L1:H1L2 normalized median ratio [49]: 85%
H1L1:H1L2 normalized median scalar value ln(r1/f1) [49]: 1.77
H2L2:H2L1 normalized median ratio [50]: 11%
H1L1:H1L2 normalized median ratio [51]: 78%
H1L1:H1L2 normalized median scalar value ln(r1/f1) [51]: 1.29
H2L2:H2L1 normalized median ratio [52]: 6%
